Molecular target: RecBCD (endogenous exonuclease of the E. coli cell-free extract) (E. coli) (UniProt P08394)
Test: cell-based or functional assay

Sequence of UniProt P08394 (P08394 2-1180 limits assumed, chain 1 of 3): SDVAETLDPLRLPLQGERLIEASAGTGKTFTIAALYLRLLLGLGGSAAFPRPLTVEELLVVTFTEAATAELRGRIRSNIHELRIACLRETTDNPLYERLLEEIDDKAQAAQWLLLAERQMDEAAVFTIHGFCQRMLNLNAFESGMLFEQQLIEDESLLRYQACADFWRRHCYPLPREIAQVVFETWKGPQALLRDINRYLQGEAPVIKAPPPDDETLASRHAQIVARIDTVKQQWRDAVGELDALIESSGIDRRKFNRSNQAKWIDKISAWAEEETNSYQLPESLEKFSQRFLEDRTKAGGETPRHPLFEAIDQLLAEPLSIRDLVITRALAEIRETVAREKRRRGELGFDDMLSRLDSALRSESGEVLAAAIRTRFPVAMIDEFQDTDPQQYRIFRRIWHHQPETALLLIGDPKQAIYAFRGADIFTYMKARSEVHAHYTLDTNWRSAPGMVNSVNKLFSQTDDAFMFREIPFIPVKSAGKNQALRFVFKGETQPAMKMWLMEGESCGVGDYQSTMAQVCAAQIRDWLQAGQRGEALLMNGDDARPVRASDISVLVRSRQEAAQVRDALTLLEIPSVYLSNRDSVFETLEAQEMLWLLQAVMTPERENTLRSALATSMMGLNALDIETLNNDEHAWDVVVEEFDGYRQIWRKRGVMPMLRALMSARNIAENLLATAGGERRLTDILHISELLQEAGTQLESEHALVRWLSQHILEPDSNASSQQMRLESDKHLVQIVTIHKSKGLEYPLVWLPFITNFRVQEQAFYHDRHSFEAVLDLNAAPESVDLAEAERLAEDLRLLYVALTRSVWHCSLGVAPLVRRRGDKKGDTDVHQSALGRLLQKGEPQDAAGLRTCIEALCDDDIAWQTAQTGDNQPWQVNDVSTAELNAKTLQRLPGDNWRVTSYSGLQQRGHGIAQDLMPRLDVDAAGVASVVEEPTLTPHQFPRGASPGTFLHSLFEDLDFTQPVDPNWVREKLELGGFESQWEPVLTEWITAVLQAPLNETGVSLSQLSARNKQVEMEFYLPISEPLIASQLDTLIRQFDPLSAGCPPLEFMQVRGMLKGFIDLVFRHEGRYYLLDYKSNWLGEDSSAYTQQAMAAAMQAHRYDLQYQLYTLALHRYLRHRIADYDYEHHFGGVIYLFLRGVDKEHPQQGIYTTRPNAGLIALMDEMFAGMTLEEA
Sequence of UniProt P08394 (P07648 whole entry, chain 2 of 3, further chain): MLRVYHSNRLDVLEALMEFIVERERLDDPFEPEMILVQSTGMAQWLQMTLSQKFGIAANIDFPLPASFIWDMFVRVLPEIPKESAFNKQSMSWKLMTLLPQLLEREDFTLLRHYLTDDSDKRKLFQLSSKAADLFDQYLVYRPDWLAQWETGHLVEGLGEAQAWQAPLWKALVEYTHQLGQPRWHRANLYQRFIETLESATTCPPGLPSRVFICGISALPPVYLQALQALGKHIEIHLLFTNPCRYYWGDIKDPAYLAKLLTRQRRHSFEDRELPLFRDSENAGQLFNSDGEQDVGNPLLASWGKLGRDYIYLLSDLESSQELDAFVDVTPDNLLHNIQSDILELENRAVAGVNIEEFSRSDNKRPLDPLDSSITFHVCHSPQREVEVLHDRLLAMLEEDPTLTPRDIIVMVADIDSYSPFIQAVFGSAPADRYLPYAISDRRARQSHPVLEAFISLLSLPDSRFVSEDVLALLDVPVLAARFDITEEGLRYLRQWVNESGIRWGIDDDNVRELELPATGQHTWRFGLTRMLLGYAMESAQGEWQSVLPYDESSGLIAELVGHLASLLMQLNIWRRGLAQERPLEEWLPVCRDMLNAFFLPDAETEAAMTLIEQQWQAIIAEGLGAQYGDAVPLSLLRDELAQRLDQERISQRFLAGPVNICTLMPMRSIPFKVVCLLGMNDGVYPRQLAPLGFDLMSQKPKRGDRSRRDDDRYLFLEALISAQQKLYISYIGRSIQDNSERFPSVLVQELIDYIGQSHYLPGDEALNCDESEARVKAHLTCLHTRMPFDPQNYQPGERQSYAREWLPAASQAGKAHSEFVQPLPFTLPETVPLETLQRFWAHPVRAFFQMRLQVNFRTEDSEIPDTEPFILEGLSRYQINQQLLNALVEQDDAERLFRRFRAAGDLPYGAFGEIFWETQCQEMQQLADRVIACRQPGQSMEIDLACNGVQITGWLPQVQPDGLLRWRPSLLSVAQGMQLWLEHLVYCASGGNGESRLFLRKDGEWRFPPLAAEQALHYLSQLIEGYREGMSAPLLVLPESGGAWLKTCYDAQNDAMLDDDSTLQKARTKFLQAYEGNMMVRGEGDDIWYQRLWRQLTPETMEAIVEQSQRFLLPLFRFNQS
Sequence of UniProt P08394 (P04993 whole entry, chain 3 of 3, further chain): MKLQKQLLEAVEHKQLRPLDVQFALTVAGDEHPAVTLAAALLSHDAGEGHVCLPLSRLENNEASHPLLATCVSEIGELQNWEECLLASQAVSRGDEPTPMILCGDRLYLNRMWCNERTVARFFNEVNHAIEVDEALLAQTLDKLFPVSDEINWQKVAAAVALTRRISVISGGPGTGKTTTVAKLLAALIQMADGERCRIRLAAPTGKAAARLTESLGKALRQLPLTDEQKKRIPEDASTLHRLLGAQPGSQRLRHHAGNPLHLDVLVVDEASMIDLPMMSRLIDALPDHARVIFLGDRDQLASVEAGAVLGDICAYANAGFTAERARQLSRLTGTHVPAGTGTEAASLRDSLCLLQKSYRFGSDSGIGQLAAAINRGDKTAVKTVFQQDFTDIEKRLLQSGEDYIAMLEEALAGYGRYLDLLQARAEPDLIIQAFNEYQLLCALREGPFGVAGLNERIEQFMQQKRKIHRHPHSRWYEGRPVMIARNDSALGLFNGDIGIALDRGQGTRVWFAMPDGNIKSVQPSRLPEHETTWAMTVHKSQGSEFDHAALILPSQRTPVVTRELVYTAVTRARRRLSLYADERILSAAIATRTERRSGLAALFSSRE

Work on “gamS protein (GamS, a truncated form of lambda gam) (from UniProt P03702 1-98)” yielded a protection of linear DNA from degradation in TX-TL (endpoint deGFP expression from 2 nM linear DNA); gamS working concentration of 3.5 µM.

From patent US20170024512A1
